From US20240270846A1 (published 2024)
Residue numbers refer to the chain shown, from its start. Names and notes keep the numbering of the source.

B1: GLS3000 Q93P one-amino acid altered one-arm antibody (CE115HA000-pE22Hh / Kn010G3 / GLS3000 Q93P-kappa) (antibody, human IgG1, kappa, L234A L235A, N297A, name in Kabat numbering)
heavy: QVQLVESGGGVVQPGRSLRLSCAASGFTFSNAWMHWVRQAPGKGLEWVAQIKAKSNNYATYYAESVKGRFTISRDDSKNSLYLQMNSLKTEDTAVYYCRYVHYGAYYGVDAWGQGTTVTVSSASTKGPSVFPLAPSSKSTSGGTAALGCLVKDYFPEPVTVSWNSGALTSGVHTFPAVLQSSGLYSLSSVVTVPSSSLGTQTYICNVNHKPSNTKVDKKVEPKSCDKTHTCPPCPAPEAAGGPSVFLFPPKPKDTLMISRTPEVTCVVVDVSHEDPEVKFNWYVDGVEVHNAKTKPREEQYASTYRVVSVLTVLHQDWLNGKEYKCKVSNKALPAPIEKTISKAKGQPREPQVYTLPPSRCELTKNQVSLSCAVKGFYPSDIAVEWESNGQPENNYKTTPPVLDSDGSFFLVSKLTVDKSRWQQGNVFSCSVMHEALHNHYTQKSLSLSPDYKDDDDK
chain: EPKSSDKTHTCPPCPAPELLGGPSVFLFPPKPKDTLMISRTPEVTCVVVDVSHEDPEVKFNWYVDGVEVHNAKTKPREEQYNSTYRVVSVLTVLHQDWLNGKEYKCKVSNKALPAPIEKTISKAKGQPREPQVCTLPPSRDELTKNQVSLWCLVKGFYPSDIAVEWESNGQPENNYKTTPPVLDSDGSFFLYSKLTVDKSRWQQGNVFSCSVMHEALHNRYTQKSLSLSP
light: DIVMTQSPLSLPVTPGEPASISCRSSQSLVHSNRNTYLHWYQQKPGQAPRLLIYKVSNRFSGVPDRFSGSGSGTDFTLKISRVEAEDVGVYYCGQGTPVPYTFGQGTKLEIKRTVAAPSVFIFPPSDEQLKSGTASVVCLLNNFYPREAKVQWKVDNALQSGNSQESVTEQDSKDSTYSLSSTLTLSKADYEKHKVYACEVTHQGLSSPVTKSFNRGEC
notes: One-arm antibody; substitution position in Kabat numbering; also called L chain altered form, Kabat 93 Q to P
B2: GLS3000 V94S one-amino acid altered one-arm antibody (CE115HA000-pE22Hh / Kn010G3 / GLS3000 V94S-kappa) (antibody, human IgG1, kappa, L234A L235A, N297A, name in Kabat numbering)
heavy: B1 heavy
chain: B1 chain
light: B1 light with P98Q, V99S
notes: One-arm antibody; substitution position in Kabat numbering; also called L chain altered form, Kabat 94 V to S
B3: GLS3000 R77S one-amino acid altered one-arm antibody (CE115HA000-pE22Hh / Kn010G3 / GLS3000 R77S-kappa) (antibody, human IgG1, kappa, L234A L235A, N297A, name in Kabat numbering)
heavy: B1 heavy
chain: B1 chain
light: B1 light with R82S, P98Q
notes: One-arm antibody; substitution position in Kabat numbering; also called L chain altered form, Kabat 77 R to S
B4: GLS3000 Q93Y one-amino acid altered one-arm antibody (CE115HA000-pE22Hh / Kn010G3 / GLS3000 Q93Y-kappa) (antibody, human IgG1, kappa, L234A L235A, N297A, name in Kabat numbering)
heavy: B1 heavy
chain: B1 chain
light: B1 light with P98Y
notes: One-arm antibody; substitution position in Kabat numbering; also called L chain altered form, Kabat 93 Q to Y
B5: GLS3000 V94R one-amino acid altered one-arm antibody (CE115HA000-pE22Hh / Kn010G3 / GLS3000 V94R-kappa) (antibody, human IgG1, kappa, L234A L235A, N297A, name in Kabat numbering)
heavy: B1 heavy
chain: B1 chain
light: B1 light with P98Q, V99R
notes: One-arm antibody; substitution position in Kabat numbering; also called L chain altered form, Kabat 94 V to R
B6: GLS3000 T92P one-amino acid altered one-arm antibody (CE115HA000-pE22Hh / Kn010G3 / GLS3000 T92P-kappa) (antibody, human IgG1, kappa, L234A L235A, N297A, name in Kabat numbering)
heavy: B1 heavy
chain: B1 chain
light: B1 light with T97P, P98Q
notes: One-arm antibody; substitution position in Kabat numbering; also called L chain altered form, Kabat 92 T to P
B7: GLS3000 Q93S one-amino acid altered one-arm antibody (CE115HA000-pE22Hh / Kn010G3 / GLS3000 Q93S-kappa) (antibody, human IgG1, kappa, L234A L235A, N297A, name in Kabat numbering)
heavy: B1 heavy
chain: B1 chain
light: B1 light with P98S
notes: One-arm antibody; substitution position in Kabat numbering; also called L chain altered form, Kabat 93 Q to S
B8: GLS3000 V94Q one-amino acid altered one-arm antibody (CE115HA000-pE22Hh / Kn010G3 / GLS3000 V94Q-kappa) (antibody, human IgG1, kappa, L234A L235A, N297A, name in Kabat numbering)
heavy: B1 heavy
chain: B1 chain
light: B1 light with P98Q, V99Q
notes: One-arm antibody; substitution position in Kabat numbering; also called L chain altered form, Kabat 94 V to Q
B9: GLS3000 V94W one-amino acid altered one-arm antibody (CE115HA000-pE22Hh / Kn010G3 / GLS3000 V94W-kappa) (antibody, human IgG1, kappa, L234A L235A, N297A, name in Kabat numbering)
heavy: B1 heavy
chain: B1 chain
light: B1 light with P98Q, V99W
notes: One-arm antibody; substitution position in Kabat numbering; also called L chain altered form, Kabat 94 V to W
B10: GLS3000 T92S one-amino acid altered one-arm antibody (CE115HA000-pE22Hh / Kn010G3 / GLS3000 T92S-kappa) (antibody, human IgG1, kappa, L234A L235A, N297A, name in Kabat numbering)
heavy: B1 heavy
chain: B1 chain
light: B1 light with T97S, P98Q
notes: One-arm antibody; substitution position in Kabat numbering; also called L chain altered form, Kabat 92 T to S
B11: GLS3000 V94Y one-amino acid altered one-arm antibody (CE115HA000-pE22Hh / Kn010G3 / GLS3000 V94Y-kappa) (antibody, human IgG1, kappa, L234A L235A, N297A, name in Kabat numbering)
heavy: B1 heavy
chain: B1 chain
light: B1 light with P98Q, V99Y
notes: One-arm antibody; substitution position in Kabat numbering; also called L chain altered form, Kabat 94 V to Y
B12: GLS3000 T97P one-amino acid altered one-arm antibody (CE115HA000-pE22Hh / Kn010G3 / GLS3000 T97P-kappa) (antibody, human IgG1, kappa, L234A L235A, N297A, name in Kabat numbering)
heavy: B1 heavy
chain: B1 chain
light: B1 light with P98Q, T102P
notes: One-arm antibody; substitution position in Kabat numbering; also called L chain altered form, Kabat 97 T to P

Molecular target: T1, CD3 epsilon homodimer protein (UniProt P07766 23-126)
T1 construct: also called CD3 (CD3 epsilon)
T1 sequence (P07766 23-126): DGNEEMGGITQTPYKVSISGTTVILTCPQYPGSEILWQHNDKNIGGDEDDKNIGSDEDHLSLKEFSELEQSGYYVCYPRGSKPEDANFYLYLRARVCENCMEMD
Assay: SPR Biacore T200, CD3 epsilon homodimer immobilised on CM4, one-arm antibody as analyte, single-cycle kinetics; reference unaltered GLS3000 antibody;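 also: CD3 epsilon homodimer attached to the CM4 chip via amine coupling, measured at 25 °C with HBS-EP+ as running buffer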

Binder	dissociation constant KD(M) ratio of L chain altered form to GLS3000 [ratio]
B1	39.5
B2	0.81
B3	0.94
B4	0.76
B5	1.11
B6	26.7
B7	0.75
B8	1.1
B9	1.81
B10	0.81
B11	2.45
B12	3.35
